{
  "source": "paper PMC11305080",
  "key": {"[1]": {"target": "human proprotein convertase subtilisin/kexin type 9 (PCSK9) (human) (UniProt Q8NBP7)", "assay": "BLI"}, "[2]": {"target": "HIT01-K21Q-R218E (cleavage-resistant variant of HIT01) (Pangasianodon hypophthalmus (iridescent shark) scaffold with human PCSK9 stretches)", "assay": "BLI"}},
  "data": [
    {"substance": "Alirocumab", "values": [
      {"measurement": "Kd", "setting": "[1]", "value": 1.71, "unit": "nM"},
      {"measurement": "Kd", "setting": "[2]", "value": 2.78, "unit": "nM"}
    ]}
  ]
}
